In US9255257B2, “PmST1 mutants for chemoenzymatic synthesis of sialyl lewis X compounds” (THE REGENTS OF THE UNIVERSITY OF CALIFORNIA, priority 2011, dated 2016):

What was measured:
[1] = system: CC(=O)N[C@H]1[C@H]([C@H](O)[C@H](O)CO)O[C@](OP(=O)(O)OC[C@H]2O[C@@H](n3ccc(N)nc3=O)[C@H](O)[C@@H]2O)(C(=O)O)C[C@@H]1O; experiment: α2-3-sialyltransferase activity, LacβMU as acceptor; format: biochemical, Pasteurella multocida; settings: other: apparent, donor, LacβMU 1 mM, Tris-HCl pH 8.5, 37° C.
Protocol: (§1) To obtain the apparent kinetic parameters of LacβMU as the acceptor for the α2-3-sialyltransferase activity, the kinetic assays were performed in duplicate in reaction mixtures of 10 μL containing Tris-HCl buffer (100 mM, pH 8.5), a fixed concentration of CMP-Neu5Ac (1 mM), different concentrations of LacβMU (0.2, 0.5, 1.0, 2.0, 5.0, and 9.0 mM) and the mutant proteins (2 μg mL^−1 of E271F, 2 μg mL^−1 of R313Y, and 1.6 μg mL^−1 of E271F/R313Y). All reactions were allowed to proceed at 37° C. for 5 min (E271F), 7 min (R313Y), and 10 min (E271F/R313Y). The apparent kinetic parameters were obtained by fitting the experimental data (the average values of duplicate assay results) into the Michaelis-Menten equation using Grafit 5.0.
(§2) To obtain the apparent kinetic parameters of CMP-Neu5Ac as the donor for the α2-3-sialyltransferase activity, the kinetic assays were performed in duplicate in reaction mixtures of 10 μL containing Tris-HCl buffer (100 mM, pH 8.5), a fixed concentration of LacβMU (1 mM), different concentrations of CMP-Neu5Ac (0.1, 0.2, 0.5, 1.0, 2.0, 5.0, 10.0 and 20.0 mM) and the mutant proteins (2 μg mL^−1 of E271F, 2 μg mL^−1 of R313Y, and 1.6 μg mL^−1 of E271F/R313Y). All reactions were allowed to proceed at 37° C. for 2 min (E271F), 7 min (R313Y), and 5 min (E271F/R313Y). The apparent kinetic parameters were obtained by fitting the experimental data (the average values of duplicate assay results) into the Michaelis-Menten equation using Grafit 5.0.
(§3) All the sialidase and α2-3-sialyltransferase assays were performed in an HPLC system. Reactions were stopped by adding 10 μL of ethanol. After necessary dilutions were performed to adjust the concentrations of the fluorescent-labeled compounds, the samples were then kept on ice until aliquots of 8 μL were injected and analyzed by a Shimadzu LC-6AD system equipped with a membrane on-line degasser, a temperature control unit, and a fluorescence detector (Shimadzu RF-10AXL). A reverse-phase Premier C18 column (250×4.6 mm i.d., 5 μm particle size, Shimadzu) protected with a C18 guard column cartridge was used. The mobile phase was 25% acetonitrile. The fluorescent compounds LacβMU and Neu5Acα2-3LacβMU were detected by excitation at 325 nm and emission at 372 nm.

[2] = system: Cc1cc(=O)oc2cc(O[C@@H]3O[C@H](CO)[C@@H](O[C@@H]4O[C@H](CO)[C@H](O)[C@H](O)[C@H]4O)[C@H](O)[C@H]3O)ccc12; experiment: as above; format: biochemical, Pasteurella multocida; settings: other: apparent, acceptor, CMP-Neu5Ac 1 mM, Tris-HCl pH 8.5, 37° C.
Protocol: as §1, §2, §3

[3] = system: CC(=O)N[C@H]1[C@H]([C@H](O)[C@H](O)CO)O[C@@](O[C@H]2[C@@H](O)[C@@H](CO)O[C@@H](O[C@H]3[C@H](O)[C@@H](O)[C@H](Oc4ccc5c(C)cc(=O)oc5c4)O[C@@H]3CO)[C@@H]2O)(C(=O)O)C[C@@H]1O; experiment: α2-3-sialidase activity, Neu5Acα2-3LacβMU as substrate; format: biochemical, Pasteurella multocida; settings: other: apparent, MES pH 5.5, 37° C.
Protocol: Site-directed mutagenesis. Site-directed mutagenesis was carried out using the QuikChange multi-site-directed mutagenesis kit from Stratagene according to the manufacturer's protocol. The primers used were 5′-[…] -3′ (SEQ ID NO:32) for E271F and 5′-[…]-3′ (SEQ ID NO:33) for R313Y. The sites of mutations are underlined.
Protein Expression and Purification. The plasmids containing the mutant genes were transformed into E. coli BL21 (DE3). The E. coli cells were cultured in LB-rich media (10 g L^−1 tryptone, 5 g L^−1 yeast extract, and 10 g L^−1 NaCl) supplemented with ampicillin (100 μg mL^−1). Overexpression of the mutant proteins was achieved by adding 0.1 mM of isopropyl-1-thio-β-D-galactopyranoside (IPTG) to the E. coli culture when its OD600 nm reached 0.8. […]
as §3, with “Reactions were stopped by adding 10 μL of ethanol.” left out, “A reverse-phase Premier C18 column (250×4.6 mm i.d., 5 μm particle size, Shimadzu) protected with a C18 guard column cartridge was used. The mobile phase was 25% acetonitrile.” left out

[4] = system: CC(=O)N[C@H]1[C@H]([C@H](O)[C@H](O)CO)O[C@](OP(=O)(O)OC[C@H]2O[C@@H](n3ccc(N)nc3=O)[C@H](O)[C@@H]2O)(C(=O)O)C[C@@H]1O; experiment: purified protein, by the assay type; settings: other: apparent, donor hydrolysis, H311A, Tris-HCl pH 8.5, 37° C., 20 min
Protocol: (§4) The reactions were stopped by adding 10 μL of pre-chilled ethanol. The mixtures were incubated on ice for 30 min and centrifuged at 13,000 rpm for 5 min. The supernatants were diluted with borate buffer (25 mM, pH 9.5) and aliquotes of 5 μL each were injected to a Beckman Coulter P/ACE™ MDQ Capillary Electrophoresis system equipped with a capillary (60 cm×75 μm i.d.) and monitored at 254 nm. The apparent kinetic parameters were obtained by fitting the experimental data (the average values of duplicate assay results) into the Michaelis-Menten equation using Grafit 5.0.

[5] = Apparent kinetics of the α2-3-sialidase activity (HPLC, fluorescent sialoside substrate); format: biochemical; settings: substrate Neu5Acα2-3LacβMU
Protocol: All the sialidase and α2-3-sialyltransferase assays were performed in an HPLC system. Reactions were stopped by adding 10 μL of ethanol. […] The mobile phase was 25% acetonitrile.
Kinetics of the α2-3-sialidase activity of PmST1 mutants.

[6] = Kinetics of the donor (CMP-Neu5Ac) hydrolysis activity by capillary electrophoresis; format: biochemical
Protocol: as §4

Pasteurella multocida PmST1 double mutant E271F/R313Y of SEQ ID NO: 13 (E247F/R289Y of Δ24PmST1, SEQ ID NO: 11) (Pasteurella multocida; E271F/R313Y)
Km ([1]; E271F/R313Y): 340 ± 20 µM
Km ([2]; E271F/R313Y): 540 ± 40 µM

Pasteurella multocida PmST1 mutant E271F of SEQ ID NO: 13 (E247F of Δ24PmST1, SEQ ID NO: 7) (Pasteurella multocida; E271F)
Km ([3]; E271F, 1 min): 5700 ± 900 µM
Km ([1]; E271F): 180 ± 10 µM
Km ([2]; E271F): 710 ± 120 µM

Pasteurella multocida PmST1 mutant H311A (Pasteurella multocida; H311A)
Km [4]: 1800 ± 200 µM

Pasteurella multocida PmST1 mutant R313Y of SEQ ID NO: 13 (R289Y of Δ24PmST1, SEQ ID NO: 9) (Pasteurella multocida; R313Y)
Km ([3]; R313Y, 25 min): 51000 ± 5000 µM
Km ([1]; R313Y): 620 ± 40 µM
Km ([2]; R313Y): 670 ± 50 µM

B1: D141A (protein)
chain: MKNRRLNFKLFFLIIFSLFSTLSWSKTITLYLDPASLPALNQLMDFTQNNEDKTHPRIFGLSRFKIPDNIITQYQNIHFVELKDNRPTEALFTILDQYPGNIELNIHLNIAHSVQLIRPILAYRFKHLDRVSIQQLNLYDAGSMEYVDLEKEENKDISAEIKQAEKQLSHYLLTGKIKFDNPTIARYVWQSAFPVKYHFLSTDYFEKAEFLQPLKEYLAENYQKMDWTAYQQLTPEQQAFYLTLVGFNDEVKQSLEVQQAKFIFTGTTTWEGNTDVREYYAQQQLNLLNHFTQAEGDLFIGDHYKIYFKGHPRGGEINDYILNNAKNITNIPANISFEVLMMTGLLPDKVGGVASSLYFSLPKEKISHIIFTSNKQVKSKEDALNNPYVKVMRRLGIIDESQVIFWDSLKQL
decrease of α2-3-sialidase activity (catalytic efficiency kcat/Km) compared to wild-type PmST1 [5]: about 7,300 fold
decrease of efficiency of CMP-Neu5Ac (donor) hydrolysis activity compared to WT [6]: 1,000 fold

B2: R313Y (protein, listed as Pasteurella multocida)
chain: MKNRRLNFKLFFLIIFSLFSTLSWSKTITLYLDPASLPALNQLMDFTQNNEDKTHPRIFGLSRFKIPDNIITQYQNIHFVELKDNRPTEALFTILDQYPGNIELNIHLNIAHSVQLIRPILAYRFKHLDRVSIQQLNLYDDGSMEYVDLEKEENKDISAEIKQAEKQLSHYLLTGKIKFDNPTIARYVWQSAFPVKYHFLSTDYFEKAEFLQPLKEYLAENYQKMDWTAYQQLTPEQQAFYLTLVGFNDEVKQSLEVQQAKFIFTGTTTWEGNTDVREYYAQQQLNLLNHFTQAEGDLFIGDHYKIYFKGHPYGGEINDYILNNAKNITNIPANISFEVLMMTGLLPDKVGGVASSLYFSLPKEKISHIIFTSNKQVKSKEDALNNPYVKVMRRLGIIDESQVIFWDSLKQL
modifications: PmST1 wild-type glycosyltransferase family 80 (GT80), GT80 sialyltransferase, Pm0188Ph
decrease in sialidase kcat (turnover number) compared to wild-type PmST1 [5]: 1,278 fold
decrease of α2-3-sialidase activity (catalytic efficiency kcat/Km) compared to wild-type PmST1 [5]: 2,639 fold
increase in sialidase Km value compared to wild-type PmST1 [5]: 2 fold

B3: E271F (protein, listed as Pasteurella multocida)
chain: MKNRRLNFKLFFLIIFSLFSTLSWSKTITLYLDPASLPALNQLMDFTQNNEDKTHPRIFGLSRFKIPDNIITQYQNIHFVELKDNRPTEALFTILDQYPGNIELNIHLNIAHSVQLIRPILAYRFKHLDRVSIQQLNLYDDGSMEYVDLEKEENKDISAEIKQAEKQLSHYLLTGKIKFDNPTIARYVWQSAFPVKYHFLSTDYFEKAEFLQPLKEYLAENYQKMDWTAYQQLTPEQQAFYLTLVGFNDEVKQSLEVQQAKFIFTGTTTWFGNTDVREYYAQQQLNLLNHFTQAEGDLFIGDHYKIYFKGHPRGGEINDYILNNAKNITNIPANISFEVLMMTGLLPDKVGGVASSLYFSLPKEKISHIIFTSNKQVKSKEDALNNPYVKVMRRLGIIDESQVIFWDSLKQL
modifications: PmST1 wild-type glycosyltransferase family 80 (GT80), GT80 sialyltransferase, Pm0188Ph
decrease in sialidase Km value compared to wild-type PmST1 [5]: 4.2 fold
decrease in sialidase kcat (turnover number) compared to wild-type PmST1 [5]: 250 fold
decrease of α2-3-sialidase activity (catalytic efficiency kcat/Km) compared to wild-type PmST1 [5]: about 59 fold

B4: H311A (protein)
chain: MKNRRLNFKLFFLIIFSLFSTLSWSKTITLYLDPASLPALNQLMDFTQNNEDKTHPRIFGLSRFKIPDNIITQYQNIHFVELKDNRPTEALFTILDQYPGNIELNIHLNIAHSVQLIRPILAYRFKHLDRVSIQQLNLYDDGSMEYVDLEKEENKDISAEIKQAEKQLSHYLLTGKIKFDNPTIARYVWQSAFPVKYHFLSTDYFEKAEFLQPLKEYLAENYQKMDWTAYQQLTPEQQAFYLTLVGFNDEVKQSLEVQQAKFIFTGTTTWEGNTDVREYYAQQQLNLLNHFTQAEGDLFIGDHYKIYFKGAPRGGEINDYILNNAKNITNIPANISFEVLMMTGLLPDKVGGVASSLYFSLPKEKISHIIFTSNKQVKSKEDALNNPYVKVMRRLGIIDESQVIFWDSLKQL
decrease of efficiency of CMP-Neu5Ac (donor) hydrolysis activity compared to WT [6]: 16 fold
